Five molecules from patent US20230365700A1 (BIOSION, published 2023) can be followed below.

Test [1] addresses T1, human CD40-Fc protein (amino acid residue 21-193 of SEQ ID NO: 30 linked to N-terminus of amino acid residue … (human, biotin-labeled in the capture ELISA and the benchmark blocking ELISA; unlabeled when coated in the ligand blocking ELISA).
T1 construct: also called biotin-labeled human CD40-Fc; human CD40-Fc-biotin
In words: competitive ELISA: antibody pre-incubated with biotin-labeled human CD40-Fc (0.23 nM), mixture added to coated BM2; competitor: BM2; OD(450-630); only partial: OD falls from about 1.13 to a plateau of about 0.77. As to the method:
(§1) The abilities of the anti-CD40 antibodies of the disclosure to block Benchmark-human CD40 binding was measured in a competitive ELISA assay. Briefly, the BM2 antibody was coated on 96-well micro plates at 1 μg/mL in PBS, 100 μl per well, and incubated overnight at 4° C. The next day, plates were washed once with wash buffer, and blocked with blocking buffer (5% w/v non-fatty milk in PBST) for 2 hours at 37° C. While blocking, the anti-CD40 antibodies of the disclosure or controls were diluted with biotin labeled human CD40-Fc protein (amino acid residue 21-193 of SEQ ID NO: 30 linked to N-terminus of amino acid residue 99-330 of SEQ ID NO.:28, 0.23 nM in 2.5% v/v non-fatty milk in PBST), starting at 66.7 nM with a 5-fold serial dilution, and incubated at room temperature for 40 minutes. After plate washing 4 times, the antibody/human CD40-Fc-biotin mixtures were added to BM2 coated plates, 100 μl/well. After incubation at 37° C. for 40 minutes, plates were washed 4 times again using wash buffer. […] Finally, TMB was added and the reaction was stopped using 1M H2504, and the absorbance was read on a microplate reader using dual wavelength mode with 450 nm for TMB and 630 nm as the reference wavelength, then the OD (450-630) values were plotted against antibody concentration. Data was analyzed using Graphpad Prism software and IC₅₀ values were reported.
(In general: An ELISA detects its analyte on a solid surface through an enzyme-linked reagent.)

The target of test [2] is T1, human CD40-Fc protein (amino acid …). The experiment in a line: capture ELISA: antibody captured on goat anti-mouse IgG F(ab')2-specific coat, detected with biotin-labeled human CD40-Fc (1.15 nM) and streptavidin-HRP; OD(450-630). As to the method: (§2) Plates were washed once with wash buffer (PBS+0.05% v/v Tween-20, PBST) and then blocked with 200 μl/well blocking buffer (5% w/v non-fatty milk in PBST) for 2 hours at 37° C. Plates were washed 4 times and incubated with 100 μl/well serially diluted anti-CD40 antibodies of the disclosure, BM1, BM2 and negative control hIgG (human immunoglobulin (pH4) for intravenous injection, Hualan Biological Engineering Inc.) (5-fold serial dilution in 2.5% w/v non-fatty milk in PBST, starting at 66.7 nM) for 40 minutes at 37° C., and then washed 4 times again. […] After a final wash, plates were incubated with 100 μl/well ELISA substrate TMB (Innoreagents, Cat #TMB-S-002) at room temperature. The reaction was stopped in 3-10 minutes with 50 μl/well 1M H₂SO₄, and the absorbance of each well was read on a microplate reader using dual wavelength mode with 450 nm for TMB and 630 nm as the reference wavelength, then the OD (450-630) values were plotted against antibody concentration. Data was analyzed using Graphpad Prism software and EC₅₀ values were reported.

The target in test [3] is T2, full length human CD40 (uniprot #P25942-1, SEQ ID NO: 30) on 293T cells (human, UniProt P25942 21-277). The experiment in a line: flow cytometry (FACS) on 293T-CD40 cells expressing full length human CD40; MFI. The method, then:
(§3) 2×10⁵ cells were incubated in each well of 96 well-plates in 100 μl anti-CD40 antibodies of the disclosure or controls of various concentrations (starting at 80 nM with a 4-fold serial dilution) in FACS buffer for 40 minutes on ice. […] Following an incubation of 40 minutes at 4° C. in dark, cells were washed three times and resuspended in FACS buffer. Fluorescence was measured using a Becton Dickinson FACS Canto II-HTS equipment and plotted against antibody concentration. Data was analyzed using Graphpad Prism software and EC₅₀ values were reported.

Test [4] addresses T1, human CD40-Fc protein (amino acid …). The experiment in a line: competitive ELISA: antibody added to coated human CD40-Fc, then biotin-labeled human CD40L-his (95 ng/mL); blocked ligand: CD40L-his; OD(450-630). The method, then:
(§4) The abilities of anti-CD40 antibodies to block CD40-CD40L binding were measured in a competitive ELISA assay. Briefly, 100 μl human CD40-Fc protein (amino acid residue 21-193 of SEQ ID NO: 30 linked to N-terminus of amino acid residue 99-330 of SEQ ID NO.:28) was coated on 96-well micro plates at 2 μg/mL in coating buffer (carbonate/bicarbonate buffer) and incubated overnight at 4° C. The next day, plates were washed once with wash buffer (PBS+0.05% v/v Tween-20, PBST), and blocked with 5% w/v non-fatty milk in PBST for 2 hours at 37° C. Plates were then washed 4 times using wash buffer.
Serially diluted anti-CD40 antibodies of the disclosure or controls (starting at 200 nM with a five-fold serial dilution) in PBST with 2.5% w/v non-fatty milk were added to the CD40-Fc bound plates, 100 μl per well, and incubated at 37° C. for 40 minutes. Plates were washed 4 times again using wash buffer, and then added and incubated for 40 minutes at 37° C. with 100 μl/well 95 ng/mL biotin-labeled human CD40L-his protein (Sino biological Inc., Cat #10239-H08E). Plates were washed again using wash buffer. Thereafter, the plates were added with 100 μl/well of streptavidin conjugated HRP (1:10000 dilution in PBST buffer, Jackson Immunoresearch, Cat #016-030-084) and incubated for 40 minutes at 37° C. Plates were washed again using wash buffer. Finally, TMB was added and the reaction was stopped using 1M H2504, and the absorbance of each well was read on a microplate reader using dual wavelength mode with 450 nm for TMB and 630 nm as the reference wavelength, then the OD (450-630) values were plotted against antibody concentration. Data was analyzed using Graphpad Prism software and IC₅₀ values were reported.

Test [5] addresses T2, full length human CD40 (uniprot …). In words: flow cytometry (FACS) on 293T-CD40 cells expressing full length human CD40; MFI. As to the method: as §3
The source holds these as a separate data set. For orientation: Flow cytometry measures light scatter and fluorescence of single cells or particles in a stream.

For test [6], the target named is T1, human CD40-Fc protein (amino acid …). The experiment in a line: competitive ELISA: antibody added to coated human CD40-Fc, then biotin-labeled human CD40L-his (95 ng/mL); blocked ligand: CD40L-his; OD(450-630). As to the method:
as §4
Serially diluted anti-CD40 antibodies of the disclosure or controls (starting at 200 nM with a five-fold serial dilution) in PBST with 2.5% w/v non-fatty milk were added to the CD40-Fc bound plates, 100 μl per well, and incubated at 37° C. for 40 minutes. […] Finally, TMB was added and the reaction was stopped using 1M H2504, and the absorbance of each well was read on a microplate reader using dual wavelength mode with 450 nm for TMB and 630 nm as the reference wavelength, then the OD (450-630) values were plotted against antibody concentration. Data was analyzed using Graphpad Prism software and IC₅₀ values were reported.
The source holds these as a separate data set.

The target is the same in test [7]. In words: competitive ELISA: antibody pre-incubated with biotin-labeled human CD40-Fc (0.23 nM), mixture added to coated BM2; competitor: BM2 (self-competition); OD(450-630). As to the method: as §1
Test [8] shares this target. The experiment in a line: capture ELISA: antibody captured on goat anti-mouse IgG F(ab')2-specific coat, detected with biotin-labeled human CD40-Fc (1.15 nM) and streptavidin-HRP; OD(450-630). The method, then: as §2
The source holds these as a separate data set.

For test [9] the target is unchanged. In words: competitive ELISA: antibody pre-incubated with biotin-labeled human CD40-Fc (0.23 nM), mixture added to coated BM2; competitor: BM2 (self-competition); OD(450-630). The method, then:
as §1
This is another data set of the same source.

The target is the same in test [10]. In words: competitive ELISA: antibody pre-incubated with biotin-labeled human CD40-Fc (0.23 nM), mixture added to coated BM2; competitor: BM2; OD(450-630). The method, then: as §1
Test [11] has the same target. In words: capture ELISA: antibody captured on goat anti-mouse IgG F(ab')2-specific coat, detected with biotin-labeled human CD40-Fc (1.15 nM) and streptavidin-HRP; OD(450-630); the curve reaches only OD about 0.9 at the highest concentration, no plateau. As to the method:
as §2

Test [12] shares this target. The experiment in a line: competitive ELISA: antibody pre-incubated with biotin-labeled human CD40-Fc (0.23 nM), mixture added to coated BM2; competitor: BM2; OD(450-630); only partial: OD falls from about 1.13 to a plateau of about 0.92. The method, then:
as §1

Like-named read-outs stand apart in the source and are kept apart here.

B1: mouse anti-CD40 monoclonal antibody 1A3 (antibody, V domains shown)
VH: EVQLQQSGPELVKTGASVKISCKASGYSFIGYYLHWVKQSLGKGLEWIGYISCHDGTIIYNQKFKGKATFTLDTSSSTAYMQFSSLTSEDSAVYFCARFLNYYGSNYAMDYWGQGTSVTVSS
VL: DIVMTQSHKFMSTSVGDRVSITCKASQDVGPAVAWYQQKPGQSPKLLIYWASTRHTGVPDRFTGSGYGTDFTLTINNVQSEDLADYFCQQYFTYPLTFGGGTKLEIK
notes: Hybridoma-derived mouse mAb; also called Clone 1A3
In general, IC50 refers to the concentration at which inhibition is half-maximal. As usually defined, the EC50 is the concentration that produces a half-maximal response. High values mean a need for much substance, low ones an effect from little substance. Take B1: the IC50 in [1] stood at 0.18 nM. In addition, the EC50 is 0.0906 nM in test [2] and 1.71 nM in test [3].

B2: BM2 (Selicrelumab) (antibody, human IgG2, kappa, V domains shown)
VH: not shown
VL: DIQMTQSPSSVSASVGDRVTITCRASQGIYSWLAWYQQKPGKAPNLLIYTASTLQSGVPSRFSGSGSGTDFTLTISSLQPEDFATYYCQQANIFPLTFGGGTKVEIKR
notes: Benchmark antibody, made in house; also called CD40-BM2; benchmark
B2: the IC50 came to 9.7 nM in test [4], 9 nM in test [6], 0.804 nM in [7] and 0.678 nM in [9]. The EC50 is 3.26 nM in [5], 0.637 nM in test [2], 0.28 nM in [8] and 2.01 nM in test [3].

B3: mouse anti-CD40 monoclonal antibody C1H1 (antibody, V domains shown)
VH: EVKLVESGGGLVKPGASLKLSCAASGFTFSNYGISWVRQTSDKRLEWVASISSGGDNTYYPDNVKGRFTISRENAKNTLYLQMSSLKSEDTALYYCARAGEKAMDYWGQGTSVTVSS
VL: DIVLTQSPVTLSVTPGDSVSLSCRASQTINNNLHWYQQKSHESPRLLIKYASQSISGIPSRFSGSGSGTDFTLSINSVETEDFGIYFCQQFSSWPLTFGAGTKLELK
notes: Hybridoma-derived mouse mAb purified on Protein A; also called mouse C1H1; Clone C1H1
Consider B3, for which, in test [4], the IC50 came to 7.83 nM. For the same molecule, the EC50 in test [5] is 1.95 nM; in test [8] it was 0.0774 nM.

B4: BM1 (Dacetuzumab) (antibody, human IgG1, kappa, V domains shown)
VH: EVQLVESGGGLVQPGGSLRLSCAASGYSFTGYYIHWVRQAPGKGLEWVARVIPNAGGTSYNQKFKGRFTLSVDNSKNTAYLQMNSLRAEDTAVYYCAREGIYWWGQGTLVTVSS
VL: DIQMTQSPSSLSASVGDRVTITCRSSQSLVHSNGNTFLHWYQQKPGKAPKLLIYTVSNRFSGVPSRFSGSGSGTDFTLTISSLQPEDFATYFCSQTTHVPWTFGQGTKVEIKR
notes: Benchmark antibody, made in house; also called CD40-BM1; benchmark
Regarding B4, the IC50 in [4] worked out at 7.91 nM; in [10], 0.234 nM; in test [6], 6.95 nM. In addition, the EC50 in test [5] was 2.46 nM; in test [2], 0.236 nM; in [8], 0.248 nM; in test [3], 0.975 nM.

B5: mouse anti-CD40 monoclonal antibody 1D1 (antibody, V domains shown)
VH: EVQLQQSGPELVKPGASVKMSCKASGYTFTDYVMHWVKQKPGQGLECIGYINPYNDGTTYNEKFKGKATLTSDKSSNAAYLELSSLTSEDSAVYYCARGFLRESWFGYWGQGTLVTVSA
VL: DVLLTQTPLSLPVSLGDQASISCRSSQNIVHSNGNTYLDWYLQKPGQSPKLLIYKVSNRFSGVPDRFSGSGSGTDFTLKISRVEAEDLGVYYCFQGSHVPPTFGGGTKLELK
notes: Hybridoma-derived mouse mAb; also called Clone 1D1
B5: the EC50 in [11] came out at 10.9 nM; in [3], 1.79 nM. The IC50 in test [12] was 4.84 nM.
